Test [1] deals with T1, human GIP receptor (human, UniProt P48546 22-466).
T1 sequence (looked up): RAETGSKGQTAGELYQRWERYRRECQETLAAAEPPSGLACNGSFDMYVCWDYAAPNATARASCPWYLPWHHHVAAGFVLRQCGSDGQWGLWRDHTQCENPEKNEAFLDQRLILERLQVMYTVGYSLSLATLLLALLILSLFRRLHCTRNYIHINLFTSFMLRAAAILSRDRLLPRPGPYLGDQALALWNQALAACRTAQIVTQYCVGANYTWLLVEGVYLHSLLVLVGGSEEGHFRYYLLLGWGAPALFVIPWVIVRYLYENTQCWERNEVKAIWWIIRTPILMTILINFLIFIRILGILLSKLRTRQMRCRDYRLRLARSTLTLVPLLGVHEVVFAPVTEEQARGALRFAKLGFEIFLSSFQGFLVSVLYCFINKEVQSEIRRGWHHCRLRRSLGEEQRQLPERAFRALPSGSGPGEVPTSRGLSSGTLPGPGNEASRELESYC
Briefly: cell-based or functional assay.

Test [2] deals with T1, human GIP receptor. As to the kind of experiment: cell-based or functional assay. The source holds these as a separate data set.

Read-outs that look alike come from different tables or passages of the source. *1 amine or outer side, *2 acyl side, *3 side chain or, on linkers, in order; H or OH if unused. Where no end group is shown, it is not given here. Side-chain parts run from the residue outwards. The star is where a group is joined. C18 diacid = O=C(O)CCCCCCCCCCCCCCCCC(=O)*; C16 diacid = O=C(O)CCCCCCCCCCCCCCC(=O)*; γGlu = O=C(O)[C@H](CCC(=O)[*:2])N[*:1]; AEEA = NCCOCCOCC(=O)O

As to EGTFISDYSIAMDKIK([AEEA-AEEA-γGlu-C18 diacid])QQDFVNWLLAQKGPSSGAPPPS [AT433], in the test with human GIP receptor [1], the “cAMP agonism % Emax” value came out at 0%, the “cAMP antagonism” value was 7.94 nM, the “cAMP antagonism % inhib” value came out at 89% and the “cAMP antagonism pIC50” value is 8.1. In the test with human GIP receptor [2], the “cAMP antagonism” value was found to be 62 nM, the “cAMP antagonism % inhib” value worked out at 100% and the cAMP antagonism log was -7.2 log M.

B1: AT431 (peptide)
peptide: EGTFISDYSIAMDKIK([AEEA-AEEA-γGlu-C16 diacid])QQDFVNWLLAQKGPSSGAPPPS-OH
modifications: N-terminus assumed
SMILES: CC[C@H](C)[C@H](NC(=O)[C@H](CO)NC(=O)[C@H](Cc1ccc(O)cc1)NC(=O)[C@H](CC(=O)O)NC(=O)[C@H](CO)NC(=O)[C@@H](NC(=O)[C@H](Cc1ccccc1)NC(=O)[C@@H](NC(=O)CNC(=O)[C@@H](N)CCC(=O)O)[C@@H](C)O)[C@@H](C)CC)C(=O)N[C@@H](C)C(=O)N[C@@H](CCSC)C(=O)N[C@@H](CC(=O)O)C(=O)N[C@@H](CCCCN)C(=O)N[C@H](C(=O)N[C@@H](CCCCNC(=O)COCCOCCNC(=O)COCCOCCNC(=O)CC[C@H](NC(=O)CCCCCCCCCCCCCCC(=O)O)C(=O)O)C(=O)N[C@@H](CCC(N)=O)C(=O)N[C@@H](CCC(N)=O)C(=O)N[C@@H](CC(=O)O)C(=O)N[C@@H](Cc1ccccc1)C(=O)N[C@H](C(=O)N[C@@H](CC(N)=O)C(=O)N[C@@H](Cc1c[nH]c2ccccc12)C(=O)N[C@@H](CC(C)C)C(=O)N[C@@H](CC(C)C)C(=O)N[C@@H](C)C(=O)N[C@@H](CCC(N)=O)C(=O)N[C@@H](CCCCN)C(=O)NCC(=O)N1CCC[C@H]1C(=O)N[C@@H](CO)C(=O)N[C@@H](CO)C(=O)NCC(=O)N[C@@H](C)C(=O)N1CCC[C@H]1C(=O)N1CCC[C@H]1C(=O)N1CCC[C@H]1C(=O)N[C@@H](CO)C(=O)O)C(C)C)[C@@H](C)CC
Turning to B1, in the test with human GIP receptor [1], the “cAMP agonism % Emax” value stood at 0%, the “cAMP antagonism” value came out at 34.2 nM, the “cAMP antagonism % inhib” value worked out at 77% and the “cAMP antagonism pIC50” value amounted to 7.5. Also, in the test with human GIP receptor [2], the “cAMP antagonism” value was found to be 7 nM, the “cAMP antagonism % inhib” value worked out at 75% and the cAMP antagonism log is -8.1 log M.

B2: AT435 (peptide)
peptide: SGTFISDYSIAMDKIK([AEEA-AEEA-γGlu-C16 diacid])QQDFVNWLLAQKGPSSGAPPPS-OH
modifications: N-terminus assumed
SMILES: CC[C@H](C)[C@H](NC(=O)[C@H](CO)NC(=O)[C@H](Cc1ccc(O)cc1)NC(=O)[C@H](CC(=O)O)NC(=O)[C@H](CO)NC(=O)[C@@H](NC(=O)[C@H](Cc1ccccc1)NC(=O)[C@@H](NC(=O)CNC(=O)[C@@H](N)CO)[C@@H](C)O)[C@@H](C)CC)C(=O)N[C@@H](C)C(=O)N[C@@H](CCSC)C(=O)N[C@@H](CC(=O)O)C(=O)N[C@@H](CCCCN)C(=O)N[C@H](C(=O)N[C@@H](CCCCNC(=O)COCCOCCNC(=O)COCCOCCNC(=O)CC[C@H](NC(=O)CCCCCCCCCCCCCCC(=O)O)C(=O)O)C(=O)N[C@@H](CCC(N)=O)C(=O)N[C@@H](CCC(N)=O)C(=O)N[C@@H](CC(=O)O)C(=O)N[C@@H](Cc1ccccc1)C(=O)N[C@H](C(=O)N[C@@H](CC(N)=O)C(=O)N[C@@H](Cc1c[nH]c2ccccc12)C(=O)N[C@@H](CC(C)C)C(=O)N[C@@H](CC(C)C)C(=O)N[C@@H](C)C(=O)N[C@@H](CCC(N)=O)C(=O)N[C@@H](CCCCN)C(=O)NCC(=O)N1CCC[C@H]1C(=O)N[C@@H](CO)C(=O)N[C@@H](CO)C(=O)NCC(=O)N[C@@H](C)C(=O)N1CCC[C@H]1C(=O)N1CCC[C@H]1C(=O)N1CCC[C@H]1C(=O)N[C@@H](CO)C(=O)O)C(C)C)[C@@H](C)CC
Take B2: in the test with human GIP receptor [1], the “cAMP antagonism” value is 79.4 nM, the “cAMP antagonism % inhib” value was determined as 84% and the “cAMP antagonism pIC50” value came out at 7.1. In addition, in the test with human GIP receptor [2], the “cAMP antagonism” value came out at 75 nM, the “cAMP antagonism % inhib” value was found to be 100% and the cAMP antagonism log is -7.1 log M.

B3: AT439 (peptide)
peptide: SGTFISDYSIAMDRIK([AEEA-AEEA-γGlu-C16 diacid])QQDFVNWLLAQRGPSSGAPPPS-OH
modifications: N-terminus assumed
SMILES: CC[C@H](C)[C@H](NC(=O)[C@H](CO)NC(=O)[C@H](Cc1ccc(O)cc1)NC(=O)[C@H](CC(=O)O)NC(=O)[C@H](CO)NC(=O)[C@@H](NC(=O)[C@H](Cc1ccccc1)NC(=O)[C@@H](NC(=O)CNC(=O)[C@@H](N)CO)[C@@H](C)O)[C@@H](C)CC)C(=O)N[C@@H](C)C(=O)N[C@@H](CCSC)C(=O)N[C@@H](CC(=O)O)C(=O)N[C@@H](CCCNC(=N)N)C(=O)N[C@H](C(=O)N[C@@H](CCCCNC(=O)COCCOCCNC(=O)COCCOCCNC(=O)CC[C@H](NC(=O)CCCCCCCCCCCCCCC(=O)O)C(=O)O)C(=O)N[C@@H](CCC(N)=O)C(=O)N[C@@H](CCC(N)=O)C(=O)N[C@@H](CC(=O)O)C(=O)N[C@@H](Cc1ccccc1)C(=O)N[C@H](C(=O)N[C@@H](CC(N)=O)C(=O)N[C@@H](Cc1c[nH]c2ccccc12)C(=O)N[C@@H](CC(C)C)C(=O)N[C@@H](CC(C)C)C(=O)N[C@@H](C)C(=O)N[C@@H](CCC(N)=O)C(=O)N[C@@H](CCCNC(=N)N)C(=O)NCC(=O)N1CCC[C@H]1C(=O)N[C@@H](CO)C(=O)N[C@@H](CO)C(=O)NCC(=O)N[C@@H](C)C(=O)N1CCC[C@H]1C(=O)N1CCC[C@H]1C(=O)N1CCC[C@H]1C(=O)N[C@@H](CO)C(=O)O)C(C)C)[C@@H](C)CC
On to B3, for which, in the test with human GIP receptor [1], the “cAMP agonism % Emax” value is 0%, the “cAMP antagonism” value was found to be 14.7 nM, the “cAMP antagonism % inhib” value turned out to be 93% and the “cAMP antagonism pIC50” value turned out to be 7.8. Besides, in the test with human GIP receptor [2], the “cAMP antagonism” value is 9 nM, the “cAMP antagonism % inhib” value was 100% and the cAMP antagonism log was -8 log M.

B4: AT437 (peptide)
peptide: SGTFISDYSIAMDKIK([AEEA-AEEA-γGlu-C18 diacid])QQDFVNWLLAQKGPSSGAPPPS-OH
modifications: N-terminus assumed
SMILES: CC[C@H](C)[C@H](NC(=O)[C@H](CO)NC(=O)[C@H](Cc1ccc(O)cc1)NC(=O)[C@H](CC(=O)O)NC(=O)[C@H](CO)NC(=O)[C@@H](NC(=O)[C@H](Cc1ccccc1)NC(=O)[C@@H](NC(=O)CNC(=O)[C@@H](N)CO)[C@@H](C)O)[C@@H](C)CC)C(=O)N[C@@H](C)C(=O)N[C@@H](CCSC)C(=O)N[C@@H](CC(=O)O)C(=O)N[C@@H](CCCCN)C(=O)N[C@H](C(=O)N[C@@H](CCCCNC(=O)COCCOCCNC(=O)COCCOCCNC(=O)CC[C@H](NC(=O)CCCCCCCCCCCCCCCCC(=O)O)C(=O)O)C(=O)N[C@@H](CCC(N)=O)C(=O)N[C@@H](CCC(N)=O)C(=O)N[C@@H](CC(=O)O)C(=O)N[C@@H](Cc1ccccc1)C(=O)N[C@H](C(=O)N[C@@H](CC(N)=O)C(=O)N[C@@H](Cc1c[nH]c2ccccc12)C(=O)N[C@@H](CC(C)C)C(=O)N[C@@H](CC(C)C)C(=O)N[C@@H](C)C(=O)N[C@@H](CCC(N)=O)C(=O)N[C@@H](CCCCN)C(=O)NCC(=O)N1CCC[C@H]1C(=O)N[C@@H](CO)C(=O)N[C@@H](CO)C(=O)NCC(=O)N[C@@H](C)C(=O)N1CCC[C@H]1C(=O)N1CCC[C@H]1C(=O)N1CCC[C@H]1C(=O)N[C@@H](CO)C(=O)O)C(C)C)[C@@H](C)CC
Turning to B4, in the test with human GIP receptor [1], the “cAMP agonism % Emax” value stood at 0%, the “cAMP antagonism” value was 35.5 nM, the “cAMP antagonism % inhib” value stood at 83% and the “cAMP antagonism pIC50” value was 7.5. Also, in the test with human GIP receptor [2], the “cAMP antagonism” value amounted to 8 nM, the “cAMP antagonism % inhib” value amounted to 100% and the cAMP antagonism log is -8.1 log M.

B5: AT434 (peptide)
peptide: EGTFISDYSIAMDKIK([AEEA-AEEA-AEEA-γGlu-C18 diacid])QQDFVNWLLAQKGPSSGAPPPS-OH
modifications: N-terminus assumed
SMILES: CC[C@H](C)[C@H](NC(=O)[C@H](CO)NC(=O)[C@H](Cc1ccc(O)cc1)NC(=O)[C@H](CC(=O)O)NC(=O)[C@H](CO)NC(=O)[C@@H](NC(=O)[C@H](Cc1ccccc1)NC(=O)[C@@H](NC(=O)CNC(=O)[C@@H](N)CCC(=O)O)[C@@H](C)O)[C@@H](C)CC)C(=O)N[C@@H](C)C(=O)N[C@@H](CCSC)C(=O)N[C@@H](CC(=O)O)C(=O)N[C@@H](CCCCN)C(=O)N[C@H](C(=O)N[C@@H](CCCCNC(=O)COCCOCCNC(=O)COCCOCCNC(=O)COCCOCCNC(=O)CC[C@H](NC(=O)CCCCCCCCCCCCCCCCC(=O)O)C(=O)O)C(=O)N[C@@H](CCC(N)=O)C(=O)N[C@@H](CCC(N)=O)C(=O)N[C@@H](CC(=O)O)C(=O)N[C@@H](Cc1ccccc1)C(=O)N[C@H](C(=O)N[C@@H](CC(N)=O)C(=O)N[C@@H](Cc1c[nH]c2ccccc12)C(=O)N[C@@H](CC(C)C)C(=O)N[C@@H](CC(C)C)C(=O)N[C@@H](C)C(=O)N[C@@H](CCC(N)=O)C(=O)N[C@@H](CCCCN)C(=O)NCC(=O)N1CCC[C@H]1C(=O)N[C@@H](CO)C(=O)N[C@@H](CO)C(=O)NCC(=O)N[C@@H](C)C(=O)N1CCC[C@H]1C(=O)N1CCC[C@H]1C(=O)N1CCC[C@H]1C(=O)N[C@@H](CO)C(=O)O)C(C)C)[C@@H](C)CC
Turning to B5, in the test with human GIP receptor [1], the “cAMP antagonism” value was 35.5 nM, the “cAMP antagonism % inhib” value was determined as 95% and the “cAMP antagonism pIC50” value came out at 7.5. Further, in the test with human GIP receptor [2], the “cAMP antagonism” value turned out to be 14 nM, the “cAMP antagonism % inhib” value is 100% and the cAMP antagonism log was -7.9 log M.
